Source: patent US20210373004A1 (BIOASTER, published 2021)

Assays:
Flag-EmGFP-ColE7-6His [1] = biological target: T1, Flag-EmGFP-ColE7-6His (Escherichia coli); test: EIA 8 plex n° 1: colicin coated at 100 nM, Im-RLuc8 alone at 100 nM, luciferase signal
T1 construct: also called Colicin E7

[2] = biological target: T2, Flag-mCherry-ColAP41-Cys-6His (Pseudomonas aeruginosa AP41); test: as above
[3] = biological target: T3, Flag-mCherry-ColSyr-Cys-6His (Pseudomonas syringae B728A); test: as above
Flag-mCherry-ColE8-6His [4] = biological target: T4, Flag-mCherry-ColE8-6His (Escherichia coli); test: EIA 8 plex n° 2: colicin coated at 100 nM, Im-RLuc8 alone at 100 nM, luciferase signal
T4 construct: also called Colicin E8

[5] = biological target: T5, Flag-mCherry-ColLeaf-Cys-6His (Pseudomonas sp Leaf83); test: as above
Flag-mCherry-ColE9-6His [6] = biological target: T6, Flag-mCherry-ColE9-6His (Escherichia coli); test: EIA 4 plex: colicin coated at 100 nM, Im-RLuc8 alone at 100 nM, luciferase signal (FIG. 1, light grey bars)
T6 construct: also called Colicin E9

Flag-mCherry-ColE9-6His [7] = biological target: T6, Flag-mCherry-ColE9-6His; test: EIA 8 plex n° 1: colicin coated at 100 nM, Im-RLuc8 alone at 100 nM, luciferase signal (FIG. 3, light grey bars)
Flag-mCherry-ColE9-6His [8] = biological target: T6, Flag-mCherry-ColE9-6His; test: EIA 8 plex n° 2: colicin coated at 100 nM, Im-RLuc8 alone at 100 nM, luciferase signal (FIG. 4, light grey bars)
Flag-EmGFP-ColE7-6His [9] = biological target: T1, Flag-EmGFP-ColE7-6His; test: kinetics, literature value (Li W. et al., 2004) printed above the bar pair; unit from the legend paragraph 10
Flag-mCherry-ColE8-6His [10] = biological target: T4, Flag-mCherry-ColE8-6His; test: as above
Flag-mCherry-ColE9-6His [11] = biological target: T6, Flag-mCherry-ColE9-6His; test: as above
[12] = biological target: T2, Flag-mCherry-ColAP41-Cys-6His; test: EIA 8 plex n° 1: colicin coated at 100 nM, Im-RLuc8 at 100 nM, luminescence; light bar alone, dark bar with the 7 other unfused Im proteins
[13] = biological target: T3, Flag-mCherry-ColSyr-Cys-6His; test: as above
[14] = biological target: T5, Flag-mCherry-ColLeaf-Cys-6His; test: EIA 8 plex n° 2: colicin coated at 100 nM, Im-RLuc8 at 100 nM, luminescence; light bar alone, dark bar with the 7 other unfused Im proteins

B1: Myc-RLuc8-Im9-6His (other)
chain: MGGEQKLISEEDLGGSASKVYDPEQRKRMITGPQWWARCKQMNVLDSFINYYDSEKHAENAVIFLHGNATSSYLWRHVVPHIEPVARCIIPDLIGMGKSGKSGNGSYRLLDHYKYLTAWFELLNLPKKIIFVGHDWGAALAFHYAYEHQDRIKAIVHMESVVDVIESWDEWPDIEEDIALIKSEEGEKMVLENNFFVETVLPSKIMRKLEPEEFAAYLEPFKEKGEVRRPTLSWPREIPLVKGGKPDVVQIVRNYNAYLRASDDLPKLFIESDPGFFSNAIVEGAKKFPNTEFVKVKGLHFLQEDAPDEMGKYIKSFVERVLKNEQKLELKHSISDYTEAEFLQLVTTICNADTSSEEELVKLVTHFEEMTEHPSGSDLIYYPKEGDDDSPSGIVNTVKQWRAANGKLEGGGSHHHHHH
notes: Immunity protein fused to the luciferase RLuc8 as reporter; added in solution; also called Im9-RLuc8; Im9-Rluc8
Flag-EmGFP-ColE7-6His [1]
  RLU: > 100000 RLU
[2]
  RLU: > 100000 RLU
[3]
  RLU: > 100000 RLU
Flag-mCherry-ColE8-6His [4]
  RLU: > 100000 RLU
[5]
  RLU: > 100000 RLU
Flag-mCherry-ColE9-6His [6]
  RLU: > 400000 RLU
Flag-mCherry-ColE9-6His [7]
  RLU: > 2e+06 RLU
Flag-mCherry-ColE9-6His [8]
  RLU: > 2.4e+06 RLU
Flag-EmGFP-ColE7-6His [9]
  Kd: 38 nM
Flag-mCherry-ColE8-6His [10]
  Kd: 64 nM
Flag-mCherry-ColE9-6His [11]
  Kd: 0.024 pM
[12]
  binding result: no binding (tested: 100 nM)
[13]
  binding result: no binding (tested: 100 nM)
[14]
  binding result: no binding (tested: 100 nM)
